Series [1] relates to HeLa Kyoto. The series is described as follows: solubility change mitosis vs G1/S (difference of NP-40 vs SDS log2 ratios) (log2 ratio difference); higher = more soluble in mitosis.
Series [2] deals with HeLa Kyoto. In words: solubility in G1/S (NP-40 vs SDS abundance) (log2 ratio); higher = more soluble. The following applies: cell cycle stage: G1/S.
Series [3] deals with HeLa Kyoto. In words: thermal stability score vs G1/S (z-score of summed log2 fold changes over temperatures); higher = more thermally stable than in G1/S.
Series [4] relates to HeLa Kyoto. In words: melting temperature (median over replicates), in situ; higher = more thermally stable.
Where [5] appears, read: cell cycle stage: early G1 (4.5 h after nocodazole release).
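Throughout, for melting temperature (median over replicates), in situ: HeLa Kyoto cells synchronized by double thymidine or nocodazole block, proteins quantified by TMT10plex mass spectrometry, three independent biological replicates.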
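Throughout, for solubility change mitosis vs G1/S (difference of NP-40 vs SDS log2 ratios): synchronized HeLa Kyoto cells (double thymidine block for G1/S, nocodazole release for mitosis), protein amounts in NP-40 versus SDS lysates quantified by mass spectrometry, three biological replicates.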
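Throughout, for solubility in G1/S (NP-40 vs SDS abundance): HeLa Kyoto cells arrested at G1/S by double thymidine block, proteins quantified by TMT10plex mass spectrometry in mild NP-40 versus SDS extracts, three biological replicates.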
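Throughout, for thermal stability score vs G1/S (z-score of summed log2 fold changes over temperatures): synchronized HeLa Kyoto cells, proteins quantified by TMT10plex mass spectrometry, three biological replicates, mitosis taken 0.5 h after nocodazole release, G1/S directly after double thymidine block.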

Turning to “MAEDDPYLGRPEQMFHLDPSLTHTIFNPEVFQPQMALPTDGPYLQILEQPKQRGFRFRYVCEGPSHGGLPGASSEKNKKSYPQVKICNYVGPAKVIVQLVTNGKNIHLHAHSLVGKHCEDGICTVTAGPKDMVVGFANLGILHVTKKKVFETLEARMTEACIRGYNPGLLVHPDLAYLQAEGGGDRQLGDREKELIRQAALQQTKEMDLSVVRLMFTAFLPDSTGSFTRRLEPVVSDAIYDSKAPNASNLKIVRMDRTAGCVTGGEEIYLLCDKVQKDDIQIRFYEEEENGGVWEGFGDFSPTDVHRQFAIVFKTPKYKDINITKPASVFVQLRRKSDLETSEPKPFLYYPEIKDKEEVQRKRQKLMPNFSDSFGGGSGAGAGGGGMFGSGGGGGGTGSTGPGYSFPHYGFPTYGGITFHPGTTKSNAGMKHGTMDTESKKDPEGCDKSDDKNTVNLFGKVIETTEQDQEPSEATVGNGEVTLTYATGTKEESAGVQDNLFLEKAMQLAKRHANALFDYAVTGDVKMLLAVQRHLTAVQDENGDSVLHLAIIHLHSQLVRDLLEVTSGLISDDIINMRNDLYQTPLHLAVITKQEDVVEDLLRAGADLSLLDRLGNSVLHLAAKEGHDKVLSILLKHKKAALLLDHPNGDGLNAIHLAMMSNSLPCLLLLVAAGADVNAQEQKSGRTALHLAVEHDNISLAGCLLLEGDAHVDSTTYDGTTPLHIAAGRGSTRLAALLKAAGADPLVENFEPLYDLDDSWENAGEDEGVVPGTTPLDMATSWQVFDILNGKPYEPEFTSDDLLAQGDMKQLAEDVKLQLYKLLEIPDPDKNWATLAQKLGLGILNNAFRLSPAPSKTLMDNYEVSGGTVRELVEALRQMGYTEAIEVIQAASSPVKTTSQAHSLPLSPASTRQQIDELRDSDSVCDSGVETSFRKLSFTESLTSGASLLTLNKMPHDYGQEGPLEGKI [NFKB1]”, in series [1], the “solubility change mitosis (log2)” value is -0.0714. Besides, in series [2], the “solubility in G1/S (log2)” value came out at 0.137. In addition, the thermal stability score amounted to 0.372 in series [3] (setting [5]) and 0.928 in series [3] (cell cycle stage: mitosis). In addition, the values for the melting temperature in series [4] (cell cycle stage: G1/S) and in series [4] (cell cycle stage: mitosis) were 48 °C and 48.5 °C, respectively.
Consider ROBO1, for which the “solubility change mitosis (log2)” value in series [1] was -0.145. For the same substance, the “solubility in G1/S (log2)” value in series [2] is 0.177. Further, the thermal stability score was -4.69 in series [3] (setting [5]) and -6.19 in series [3] (cell cycle stage: mitosis). Besides, the values for the melting temperature in series [4] (cell cycle stage: G1/S) and in series [4] (cell cycle stage: mitosis) were 55.3 °C and 54.4 °C, respectively.
“MSGPTWLPPKQPEPARAPQGRAIPRGTPGPPPAHGAALQPHPRVNFCPLPSEQCYQAPGGPEDRGPAWVGSHGVLQHTQGLPADRGGLRPGSLDAEIDLLSSTLAELNGGRGHASRRPDRQAYEPPPPPAYRTGSLKPNPASPLPASPYGGPTPASYTTASTPAGPAFPVQVKVAQPVRGCGPPRRGASQASGPLPGPHFPLPGRGEVWGPGYRSQREPGPGAKEEAAGVSGPAGRGRGGEHGPQVPLSQPPEDELDRLTKKLVHDMNHPPSGEYFGQCGGCGEDVVGDGAGVVALDRVFHVGCFVCSTCRAQLRGQHFYAVERRAYCEGCYVATLEKCATCSQPILDRILRAMGKAYHPGCFTCVVCHRGLDGIPFTVDATSQIHCIEDFHRKFAPRCSVCGGAIMPEPGQEETVRIVALDRSFHIGCYKCEECGLLLSSEGECQGCYPLDGHILCKACSAWRIQELSATVTTDC [TRIP6]”: the “solubility change mitosis (log2)” value in series [1] was -0.132. Moreover, the “solubility in G1/S (log2)” value in series [2] was -0.106. Besides, the thermal stability score in series [3] (setting [5]) was 0.24; in series [3] (cell cycle stage: mitosis), -0.443. For the same substance, the melting temperature in series [4] (cell cycle stage: G1/S) and in series [4] (cell cycle stage: mitosis) was 52 °C throughout.
Turning to “MAQQQMTSSQKALMLELKSLQEEPVEGFRITLVDESDLYNWEVAIFGPPNTLYEGGYFKAHIKFPIDYPYSPPTFRFLTKMWHPNIYENGDVCISILHPPVDDPQSGELPSERWNPTQNVRTILLSVISLLNEPNTFSPANVDASVMFRKWRDSKGKDKEYAEIIRKQVSATKAEAEKDGVKVPTTLAEYCIKTKVPSNDNSSDLLYDDLYDDDIDDEDEEEEDADCYDDDDSGNEES [UBE2R2]”, the “solubility change mitosis (log2)” value in series [1] was 0.134. Moreover, the “solubility in G1/S (log2)” value in series [2] came out at 0.302. The figures for the thermal stability score in series [3] (setting [5]) and in series [3] (cell cycle stage: mitosis) were -2.34 and -0.967, respectively. Further, the values for the melting temperature in series [4] (cell cycle stage: G1/S) and in series [4] (cell cycle stage: mitosis) were 51.9 °C and 52.9 °C, respectively.
As to “MGAVWSALLVGGGLAGALFVWLLRGGPGDTGKDGDAEQEKDAPLGGAAIPGGHQSGSSGLSPGPSGQELVTKPEHLQESNGHLISKTKDLGKLQAASWRLQNPSREVCDNSREHVPSGQFPDTEAPATSETSNSRSYSEVSRNESLESPMGEWGFQKGQEISAKAATCFAEKLPSSNLLKNRAKEEMSLSDLNSQDRVDHEEWEMVPRHSSWGDVGVGGSLKAPVLNLNQGMDNGRSTLVEARGQQVHGKMERVAVMPAGSQQVSVRFQVHYVTSTDVQFIAVTGDHECLGRWNTYIPLHYNKDGFWSHSIFLPADTVVEWKFVLVENGGVTRWEECSNRFLETGHEDKVVHAWWGIH [STBD1]”, the “solubility change mitosis (log2)” value in series [1] was -0.0441. For the same substance, the “solubility in G1/S (log2)” value in series [2] is -0.336. In addition, the thermal stability score in series [3] (setting [5]) is 0.314; in series [3] (cell cycle stage: mitosis), -0.125. In addition, the results for the melting temperature in series [4] (cell cycle stage: G1/S) and in series [4] (cell cycle stage: mitosis) were 50.7 °C and 50.3 °C, respectively.
As to “MAATKRKRRGGFAVQAKKPKRNEIDAEPPAKRHATAEEVEEEERDRIPGPVCKGKWKNKERILIFSSRGINFRTRHLMQDLRMLMPHSKADTKMDRKDKLFVINEVCEMKNCNKCIYFEAKKKQDLYMWLSNSPHGPSAKFLVQNIHTLAELKMTGNCLKGSRPLLSFDPAFDELPHYALLKELLIQIFSTPRYHPKSQPFVDHVFTFTILDNRIWFRNFQIIEEDAALVEIGPRFVLNLIKIFQGSFGGPTLYENPHYQSPNMHRRVIRSITAAKYREKQQVKDVQKLRKKEPKTLLPHDPTADVFVTPAEEKPIEIQWVKPEPKVDLKARKKRIYKRQRKMKQRMDSGKTK [BRIX1]”, in series [1], the “solubility change mitosis (log2)” value was determined as 1.19. Besides, the “solubility in G1/S (log2)” value in series [2] is -2.07. The thermal stability score was 0.649 in series [3] (setting [5]) and -2.33 in series [3] (cell cycle stage: mitosis). For the same substance, the melting temperature in series [4] (cell cycle stage: G1/S) was determined as 53.8 °C; in series [4] (cell cycle stage: mitosis), 52.9 °C.
As to TP53BP1, the “solubility change mitosis (log2)” value in series [1] was -0.107. Besides, in series [2], the “solubility in G1/S (log2)” value is -0.0663. For the same substance, the results for the thermal stability score in series [3] (setting [5]) and in series [3] (cell cycle stage: mitosis) were -3.39 and -2.67, respectively. The melting temperature was found to be 49.9 °C in series [4] (cell cycle stage: G1/S) and 50.8 °C in series [4] (cell cycle stage: mitosis).
For the substance “MLERRCRGPLAMGLAQPRLLSGPSQESPQTLGKESRGLRQQGTSVAQSGAQAPGRAHRCAHCRRHFPGWVALWLHTRRCQARLPLPCPECGRRFRHAPFLALHRQVHAAATPDLGFACHLCGQSFRGWVALVLHLRAHSAAKRPIACPKCERRFWRRKQLRAHLRRCHPPAPEARPFICGNCGRSFAQWDQLVAHKRVHVAEALEEAAAKALGPRPRGRPAVTAPRPGGDAVDRPFQCACCGKRFRHKPNLIAHRRVHTGERPHQCPECGKRFTNKPYLTSHRRIHTGEKPYPCKECGRRFRHKPNLLSHSKIHKRSEGSAQAAPGPGSPQLPAGPQESAAEPTPAVPLKPAQEPPPGAPPEHPQDPIEAPPSLYSCDDCGRSFRLERFLRAHQRQHTGERPFTCAECGKNFGKKTHLVAHSRVHSGERPFACEECGRRFSQGSHLAAHRRDHAPDRPFVCPDCGKAFRHKPYLAAHRRIHTGEKPYVCPDCGKAFSQKSNLVSHRRIHTGERPYACPDCDRSFSQKSNLITHRKSHIRDGAFCCAICGQTFDDEERLLAHQKKHDV [REPIN1]”, the “solubility change mitosis (log2)” value in series [1] was -0.0234. In addition, the “solubility in G1/S (log2)” value in series [2] was -0.0762. Besides, the thermal stability score in series [3] (setting [5]) is -0.836; in series [3] (cell cycle stage: mitosis), -2.05. Further, the melting temperature was found to be 54.4 °C in series [4] (cell cycle stage: G1/S) and 52.9 °C in series [4] (cell cycle stage: mitosis).

The values are drawn from the supplement of paper PMC5998384.
